What was measured:
[1] = target: receptor on VERO E6 cells (not identified in the filing); experiment: flow cytometry on VERO E6 cells, FITC anti-human IgG Fc
[2] = target: receptor on VERO E6 cells (not identified in the filing)
[3] = target: receptors in NIH 3T3 cells (not identified in the filing); experiment: flow cytometry on NIH 3T3 cells, FITC anti-human IgG Fc

Substance | concentration at which it bound [1] [µg/mL] | avidity [2] [µM] | concentration at which it bound [3] [µg/mL]
S1-Fc fusion protein (from UniProt P59594 14-333) | 1 |  | 
S2-Fc fusion protein (from UniProt P59594 334-666) | 0.1 | 1 | 1
S3-Fc fusion protein (from UniProt P59594 667-999) |  |  | 0.1
